# Measurements reported in paper PMC6043480 (2018).
# Ends that are not written are not given here. dimethyl = dimethyl-lysine
# T1: 53BP1 tandem Tudor domain (residues 1459-1634) (human, UniProt Q12888 1459-1634)
# T1 chain: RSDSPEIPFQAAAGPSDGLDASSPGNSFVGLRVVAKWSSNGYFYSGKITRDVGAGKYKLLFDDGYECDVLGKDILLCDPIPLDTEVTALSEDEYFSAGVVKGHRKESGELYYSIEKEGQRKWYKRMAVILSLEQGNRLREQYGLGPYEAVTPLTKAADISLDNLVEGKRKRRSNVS
# Molecular target: T1, 53BP1 tandem Tudor domain (residues …)
# Experiment: ITC
binder,measurement,value
KGGAKRHRK(dimethyl)VLRDN [H4K20me2 peptide (residues 12-25)],Kd,19.8 µM
